From patent US20040161756A1, “Substrate linked directed evolution (slide)” (priority 2000, published 2004)

What was measured:
[1] = tested on: loxP sites; assay: Recombination of pEVO-loxP^2 excision substrate in E. coli; assay type: cell-based; settings: expressed from the arabinose promoter, even at very low expression levels
Excerpt: (§1) Evolution vectors: The pEVO vector series is based on the plasmid pBAD-33 (Guzman et al., J Bacteriol 177, 4121-30 (1995)). pEVO-loxP^2, pEVO-3, pEVO-6 and pEVO-10 are identical except for the recognition target sites for the recombinase (see also FIG. 3). pEVO-loxP^2 contains two tandemly repeated loxP sites as they exist in the bacteriophage P1, spaced by 690 bp. pEVO-3, contains two recognition target sites which differ in 3 nucleotides per halfsite from a loxP site. The spacer in pEVO-3 is identical to the one found in loxP sites from bacteriophage P1. pEVO-6 recognition target sites (loxH) have the spacer sequence altered in all eight positions in addition to the three nucleotides changes present in pEVO-3. pEVO-10 contains two loxH sites as well as two loxP sites, which are intertwined. Recombinase expression levels can be titrated by the amount of L-arabinose added to the medium.
(§2) To test the method of the invention, Cre recombinase was first cloned into the vector pEVO-loxP^2, which contains two loxP sites, oriented as an excision substrate. […] As a first step, the three nucleotides different in the loxH halfsites were introduced (pEVO-3). […] Libraries of mutated recombinase were cloned into pEVO3 and screened at low recombinase expression levels.

[2] = tested on: loxH sites; assay: Recombination of loxH sites in E. coli (initial experiments and pEVO-6 vector, plasmid gel); assay type: cell-based
Excerpt: as §1

[3] = tested on: pSVpaX (loxP sites); assay: Recombination reporter assay in CHO cells, pSVpaX; assay type: cell-based, chinese hamster; settings: co-transfection, within 36 hours, from β-galactosidase activities
Excerpt: (§3) a) Plasmids expressing the depicted recombinases from the PGK promoter were co-transfected with the recombination reporter plasmids pSVpaX (loxP sites) or pSVpaH (loxH sites) into CHO cells. Illustrations of plasmids pSVpaX, pSVpaH, and pSVpaZ is presented. White triangles depict loxH sites, grey triangles loxP sites, and black triangles FRT sites. SV40═SV40 early promoter; pac=puromycin acetytransferase.
(§4) Cell culture: Chinese hamster ovary (CHO) cells were transfected with plasmid DNA using Lipofectamine (GibcoBRL). Crude cell extracts were prepared after 36 hours and Luciferase activity of cell extracts were determined with the Luciferase assay system from Promega. Relative β-galactosidase activities were measured with the Galacto-Light kit from Tropix. The Cre recombination reporter plasmid pSVpaX has been described earlier (Buchholz et al., Nucleic Acids Res 24, 4256-62 (1996)). pSVpaH is identical to pSVpaX except that the loxP sites were exchanged with loxH sites. […] Recombination efficiencies were calculated from measured β-galactosidase activities, corrected by transformation efficiencies assayed by Luciferase measurements.
(§5) The recombination properties of Fre1 and Fre3 were evaluated in mammalian cells, by co-transfecting chinese hamster ovary (CHO) cells with reporter and recombinase expression plasmids (FIG. 6a). […]

[4] = tested on: pSVpaH (loxH sites); assay: Recombination reporter assay in CHO cells, pSVpaH; assay type: cell-based, chinese hamster; settings: co-transfection
Excerpt: as §3, §4, §5

[5] = tested on: recognition target sites which differ in 3 nucleotides per halfsite from a loxP site; assay: Recombination of pEVO-3 in E. coli; assay type: cell-based
Excerpt: as §1, §2

B1: Cre: site specific recombinase that recognises the 34 bp loxP sequence; wild type starting protein (protein, UniProt P06956 1-343, looked up)
Recombinase cre: MSNLLTVHQNLPALPVDATSDEVRKNLMDMFRDRQAFSEHTWKMLLSVCRSWAAWCKLNNRKWFPAEPEDVRDYLLYLQARGLAVKTIQQHLGQLNMLHRRSGLPRPSDSNAVSLVMRRIRKENVDAGERAKQALAFERTDFDQVRSLMENSDRCQDIRNLAFLGIAYNTLLRIAEIARIRVKDISRTDGGRMLIHIGRTKTLVSTAGVEKALSLGVTKLVERWISVSGVADDPNNYLFCRVRKNGVAAPSATSQLSTRALEGIFEATHRLIYGAKDDSGQRYLAWSGHSARVGAARDMARAGVSIPEIMQAGGWTNVNIVMNYIRNLDSETGAMVRLLEDGD
recombination of plasmid pEVO-loxP^2 [1]: efficiently recombined | recombination of pEVO-6 (loxH sites) ([2]; even when induced with arabinose): no recombination | recombination of loxH sites ([2]; initial recombination experiments in E. coli): does not recombine this site at measurable frequency | reporter pSVpaX recombined [3]: approximately 75% | recombination of pSVpaH [4]: little recombination | recombination of pEVO-3 ([5]; higher expression levels): recombination was observed | recombination of pEVO-3 ([5]; low expression levels): did not recombine
